In PMC2173104:

Assays:
Experiment in all cases: two-hybrid
[1] = target: Gal4 binding domain fusion of Iqg1p (295–823) (S. cerevisiae) (UniProt Q12280)
[2] = target: Gal4 binding domain Iqg1p fusion protein, Iqg1p (1–1495) (S. cerevisiae) (UniProt Q12280)
[3] = target: Gal4 binding domain fusion of Iqg1p (1–823) (S. cerevisiae) (UniProt Q12280)

Myosin light chain protein Mlc1p in pGAD-C2 (from UniProt P53141 1-149) (natural protein)
beta-galactosidase activity [1]: 408 Miller units
beta-galactosidase activity [2]: 98.7 Miller units
beta-galactosidase activity [3]: 107 Miller units

Cdc12p in pGAD-C2 (from UniProt P32468 1-407) (natural protein)
beta-galactosidase activity [2]: 23 Miller units
